Measurements: article PMC6020066 (Science (New York, N.Y.), 2018)

Biological target: HA-GST-LC3B (UniProt Q9GZQ8 1-120)
Experiment: pull-down

B1: purified FLAG-NUFIP1-HA-ZNHIT3 complex (complex)
chain 1: not shown
chain 2: MASLKCSTVVCVICLEKPKYRCPACRVPYCSVVCFRKHKEQCNPETRPVEKKIRSALPTKTVKPVENKDDDDSIADFLNSDEEEDRVSLQNLKNLGESATLRSLLLNPHLRQLMVNLDQGEDKAKLMRAYMQEPLFVEFADCCLGIVEPSQNEES
binding result: binds
